# Experimental data from IntAct's records for PubMed 19682256.
# B1: Aerobic respiration control sensor protein ArcB (Escherichia coli (strain K12)), P0AEC3 (parent)
# chain: MKQIRLLAQYYVDLMMKLGLVRFSMLLALALVVLAIVVQMAVTMVLHGQVESIDVIRSIFFGLLITPWAVYFLSVVVEQLEESRQRLSRLVQKLEEMRERDLSLNVQLKDNIAQLNQEIAVREKAEAELQETFGQLKIEIKEREETQIQLEQQSSFLRSFLDASPDLVFYRNEDKEFSGCNRAMELLTGKSEKQLVHLKPADVYSPEAAAKVIETDEKVFRHNVSLTYEQWLDYPDGRKACFEIRKVPYYDRVGKRHGLMGFGRDITERKRYQDALERASRDKTTFISTISHELRTPLNGIVGLSRILLDTELTAEQEKYLKTIHVSAVTLGNIFNDIIDMDKMERRKVQLDNQPVDFTSFLADLENLSALQAQQKGLRFNLEPTLPLPHQVITDGTRLRQILWNLISNAVKFTQQGQVTVRVRYDEGDMLHFEVEDSGIGIPQDELDKIFAMYYQVKDSHGGKPATGTGIGLAVSRRLAKNMGGDITVTSEQGKGSTFTLTIHAPSVAEEVDDAFDEDDMPLPALNVLLVEDIELNVIVARSVLEKLGNSVDVAMTGKAALEMFKPGEYDLVLLDIQLPDMTGLDISRELTKRYPREDLPPLVALTANVLKDKQEYLNAGMDDVLSKPLSVPALTAMIKKFWDTQDDEESTVTTEENSKSEALLDIPMLEQYLELVGPKLITDGLAVFEKMMPGYVSVLESNLTAQDKKGIVEEGHKIKGAAGSVGLRHLQQLGQQIQSPDLPAWEDNVGEWIEEMKEEWRHDVEVLKAWVAKATKK
# partner: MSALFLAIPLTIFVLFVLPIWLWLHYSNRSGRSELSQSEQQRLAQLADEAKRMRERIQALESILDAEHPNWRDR
# B2: Aerobic respiration control sensor protein ArcB (Escherichia coli (strain K12)), P0AEC3 (parent)
# chain: B1 chain
# B3: Phage shock protein B (Escherichia coli (strain K12)), P0AFM9 (parent)
# chain: B1 partner
# partner: B1 chain
# Variants of: B1
# Settings: with pspb_ecoli pspB, P0AFM9
row,Variant,effect of a mutation on the interaction
1,L87A;L90A;L94A;M97A,decreasing interaction strength

# Variants of: B2
# Settings: with pspa_ecoli pspA
row,Variant,effect of a mutation on the interaction
1,L87A;L90A;L94A;M97A,decreasing interaction strength

# Variants of: B3
# Settings: with arcb_ecoli arcB, P0AEC3
row,Variant,effect of a mutation on the interaction
1,MSALFLAIPATIFVAFVAPIWLWLHYSNRSGRSELSQSEQQRLAQLADEAKRMRERIQALESILDAEHPNWRDR [L10A;L15A;L18A],decreasing interaction strength
